Measurements from patent US8173596B2, “Prouroguanylin, and synthetic analogs or proteolytic cleavage products derived from it, as therapeutic and diagnostic agents for diseases involving salt and/or fluid homeostasis” (The University of North Carolina at Chapel Hill, priority 2004, dated 2012).
“Also recorded” adds a separate entry of the source.

What was measured:
GC-C = molecular target: T1, GC-C (Homo sapiens, UniProt P25092); settings: other reports (Hamra et al. 1996); cited from earlier work
T1 construct: endogenous in cells; host or cells: T84 cells
T1 sequence (P25092 24-1073): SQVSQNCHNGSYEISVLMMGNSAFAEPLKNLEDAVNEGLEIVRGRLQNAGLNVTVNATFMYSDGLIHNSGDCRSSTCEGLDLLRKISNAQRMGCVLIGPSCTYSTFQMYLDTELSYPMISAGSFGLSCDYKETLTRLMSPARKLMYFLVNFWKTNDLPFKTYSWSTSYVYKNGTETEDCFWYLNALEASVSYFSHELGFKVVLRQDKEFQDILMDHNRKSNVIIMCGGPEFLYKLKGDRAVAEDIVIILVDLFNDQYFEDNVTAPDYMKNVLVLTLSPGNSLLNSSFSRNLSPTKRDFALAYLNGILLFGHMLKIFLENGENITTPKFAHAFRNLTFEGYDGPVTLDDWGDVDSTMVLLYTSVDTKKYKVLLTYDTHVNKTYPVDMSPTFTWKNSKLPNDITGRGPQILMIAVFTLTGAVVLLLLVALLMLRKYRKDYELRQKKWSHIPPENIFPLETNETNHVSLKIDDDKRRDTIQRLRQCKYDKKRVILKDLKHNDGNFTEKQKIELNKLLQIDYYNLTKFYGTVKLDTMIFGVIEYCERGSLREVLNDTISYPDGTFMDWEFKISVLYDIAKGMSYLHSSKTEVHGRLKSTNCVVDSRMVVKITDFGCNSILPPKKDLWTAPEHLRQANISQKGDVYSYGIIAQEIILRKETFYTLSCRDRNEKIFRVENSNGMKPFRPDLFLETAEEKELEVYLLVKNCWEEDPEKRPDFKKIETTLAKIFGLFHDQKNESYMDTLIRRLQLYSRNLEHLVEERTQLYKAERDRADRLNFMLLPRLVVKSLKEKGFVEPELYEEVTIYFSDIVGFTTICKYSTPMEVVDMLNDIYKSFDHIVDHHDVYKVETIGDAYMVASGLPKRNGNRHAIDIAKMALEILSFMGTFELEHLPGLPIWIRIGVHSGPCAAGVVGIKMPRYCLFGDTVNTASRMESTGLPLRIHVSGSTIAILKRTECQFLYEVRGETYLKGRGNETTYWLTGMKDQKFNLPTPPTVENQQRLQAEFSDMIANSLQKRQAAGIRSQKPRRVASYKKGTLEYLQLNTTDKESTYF

anesthetized rats = assay: Diuresis and natriuresis induced by infused native proUGn in anesthetized rats; format: in vivo, rat
Procedure: (§1) Experiments were performed with 200-250 g male Sprague Dawley rats (Charles River Laboratories, Wilmington, Mass., United States of America). Rat test diets were obtained from a commercial supplier (Harlan Teklad, Madison, Wis., United States of America). For some experiments, anephric animals were prepared by surgical acute ligation of the renal pedicles. As necessary, animals were anesthetized with Nembutal (60 mg/kg body weight ip).
Na, K, and fluid excretion: Na and K concentrations are analyzed on an IF model 943 flame photometer (Instrumentation Laboratory Company, Lexington, Mass., United States of America). Urine is collected from ureteric canulae or by the use of metabolic cages. Urine volume is determined gravimetrically.
Native proUGn is purified from rat small intestine. Animals are sacrificed by anesthetic overdose, and approximately 20 cm of proximal small intestine is removed. The tissue is cut longitudinally, rinsed with saline, and the mucosal layer is isolated by scraping with a microscope slide. Scraped material is snap-frozen on a metal plate chilled to −78.5° C., then homogenized in 50 mM HEPES, pH 7.4, containing protease inhibitor. The homogenate is cleared by centrifugation at 50,000×g, and the supernate is fractionated sequentially by HPLC on a MonoQ anion exchange column and a VYDAC C-18 reverse-phase column. The HPLC chromatogram of this second chromatography step is shown in FIG. 10a, with a Western blot of the individual HPLC fractions shown in the inset, confirming the presence of proUGn. The purified material was dried to remove the HPLC solvents and resuspended in physiological saline. Recovery is measured by quantitative proUGn immunoassay.
Native proUGn is infused for 60 min into a group of 5 anesthetized rats, the standard infusion containing approximately 180-pmol peptide. Given an estimated rat plasma volume of 10 mL, the infusion rate was approximately […]. Blood pressure, urine production, and sodium excretion were monitored for approximately 40 minutes prior to the infusion, during the infusion, and for approximately 50 minutes after the infusion to measure the effect of the proUGn on diuresis and natriuresis. For comparison, a control group of five rats was infused with regular saline, one rat was infused with a solution of proUGn that had been neutralized by incubation with antibodies 6910 and 6912, and one rat was infused with a solution containing STa at 5 μg/kg/hr.

[1] = Kidney clearance and tissue fate of infused or bolus-injected 35S-proUGn; format: in vivo, rat
Procedure: as §1
Radioactive proUGn was prepared by coupled in vitro transcription/translation in the presence of ^35S-Cys and ^35S-Met from a cDNA template that encoded full-length proUGn (minus the signal peptide).
A solution containing radioactively-labeled r-proUGn was infused by iv into anesthetized rats for 60 min. The concentration of radioactivity in the plasma and the urine was measured via scintillation counting at timepoints throughout the infusion. […] At the end of the 60 min infusion, tissue samples were collected from the brain, thymus, lung, small intestine, skeletal muscle, spleen, heart, kidney, and liver and assayed for radioactivity by scintillation counting.
To measure the rate of kidney clearance of proUGn, plasma levels of ^35S-proUGn were monitored following bolus injection of the radiolabelled propeptide. Bolus injections (about 10^6 cpm) were given to groups of control (i.e., normal) rats and to anephric rats. At various timepoints after the injection, blood samples were removed and fractionated by HPLC. Radioactivity in each HPLC fraction was measured in a scintillation counter. […] Taken together, the results from these experiments indicate that the kidney appears to be the major route of clearance for proUGn.

[2] = HPLC analysis of proUGn metabolites in plasma and urine; format: in vivo, rat
Procedure: Unless otherwise stated, HPLC conditions for the detection and identification of proUGn and related peptides are as follows: Vydac 218TP™ C-18 reverse-phase column (Grace Vydac, Hesperica, Calif., United States of America); equilibration of the column with H2O with 0.1% TFA for 25 minutes, followed by a 30 minutes gradient from 0% acetonitrile (with 0.1% TFA) to 50% acetonitrile (with 0.1% TFA), 5 min wash with 100% acetonitrile (0.1% TFA).
Plasma samples were taken 2, 5, and 10 min after bolus injection of ^35S-proUGn (about 10^6 cpm) into the carotid artery (n=2 for each timepoint). Urine was collected for 30 min at the end of a 60 min arterial infusion of ^35S-proUGn (n=7). The cpm/μL in the infused material was approximately 100 times lower than the cpm/μL in the solution used for the bolus injection. Plasma and urine samples were applied to the HPLC column and eluted, with the radioactivity in each fraction measured in a scintillation counter.

[3] = steady iv infusion over 60 min, FIG. 8a

B1: proguanylin (protein, listed as Rattus norvegicus)
chain: MNAWLLSVLCLLGALAVLVEGVTVQDGDLSFPLESVKQLKHLREVQEPTLMSHKKFALRLPKPVAPELCSQSAFPEALRPLCEKPNAEEILQRLEAIAQDPNTCEICAYAACTGC
notes: propeptide of Gn15
In the case of B1, the “activation of GC-C” value (GC-C) is listed as “inability”.

B2: prouroguanylin (protein, listed as Rattus norvegicus)
chain: VYIKYHGFQVQLESVKKLNELEEKQMSDPQQQKSGLLPDVCYNPALPLDLQPVCASQEAASTFKALRTIATDECELCINVACTGC
notes: propeptide of UGn18
With B2 the “sodium excretion following proUGn infusion” value (anesthetized rats; 60 min infusion of approximately 180 pmol peptide, after infusion) was 3200 nmol/min, the sodium excretion (anesthetized rats; 60 min infusion, FIG. 10c) was “mirrored the increase in urine flow rate” and the urine flow (anesthetized rats; 60 min infusion, anesthetized rats, FIG. 10b) was “increase in urine flow”. For the same molecule, the “onset of the response to proUGn” value (anesthetized rats; after beginning infusion) was 20 to 40 min, the “duration of the response to proUGn” value (anesthetized rats; after terminating the infusion) was “more than several hours” and the “sodium excretion before proUGn infusion” value (anesthetized rats; baseline of the infused animals) was 60 nmol/min. For the same molecule, the “natriuretic response compared with responses reported in the literature for UGn18” value (anesthetized rats; comparison with literature UGn18 infusion) was “many times greater”, the “increase in urine production” value (anesthetized rats; infusing exogenous proUGn into the bloodstream) was ≤ 50 fold and the “activation of GC-C” value (GC-C) was “inability”.

B3: ^35S-proUGn: proUGn prepared by coupled in vitro transcription/translation in the presence of 35S-Cys and 35S-Met (protein)
chain: VYIKYHGFQVQLESVKKLNELEEKQMSDPQQQKSGLLPDVCYNPALPLDLQPVCASQEAASTFKALRTIATDECELCINVACTGC
For B3, the “clearance from plasma, control versus anephric rats” value ([1]; bolus injection about 10^6 cpm, FIG. 8c) was “cleared more quickly in the control animals; also recorded: cleared rapidly from the plasma of a normal animal”, the “tissue distribution of radioactivity” value ([1]; end of 60 min infusion, brain, thymus, lung, small intestine, skeletal muscle, spleen, heart, kidney, liver, FIG. 8b) was “only the kidney samples contained significant levels of radioactivity; also recorded: specific activity of labeling in the kidney is greater than in any other tissue” and the “plasma level of radioactivity” value [1, 3] was “remained steady; also recorded: stable plasma level of radioactivity”. The “urine level of radioactivity” value [1, 3] was “increased dramatically”, the “integrity in plasma (HPLC of radiolabelled species)” value ([2]; plasma 2, 5, 10 min after bolus injection, FIG. 9a) was “appears to remain intact in plasma” and the “radioactive species in urine (HPLC)” value ([2]; urine collected 30 min at end of 60 min infusion, FIG. 9b) was “at least two, and possibly three, proUGn-related products”.
